Blank lines part the entries; values can stand above or below the molecule they belong to. Where a SMILES comes first, the peptide text is derived from it. Where no end group is shown, it is not given here. [ ]: non-standard residue; d: D form. The star is where a group is joined. pS = N[C@@H](COP(=O)(O)O)C(=O)O; Cbz = O=C(OCc1ccccc1)*
Tests used:
[1] = biological target: biotinylated β-TrCP1-avi tag/Skp1 complex (UniProt Q9Y297); assay: FRET or BRET; TR-FRET, no compound: BODIPY-FL β-catenin peptide titrated against 300 pM biotinylated β-TrCP/Skp1 on 1.2 nM terbium-streptavidin; PBS, 0.01% Triton X-100, 2 mM DTT, 2% DMSO; 1 h
[2] = biological target: β-TrCP1 (recombinant β-TrCP/Skp1 complex) (UniProt Q9Y297); assay: peptide binding assay, type not said; conditions: reference: pSer33/pSer37 peptide; sites S37
[3] = biological target: T1, S33E/S37A mutant β-catenin (Homo sapiens, UniProt P35222+Q9Y297, S33E/S37A); assay: β-catenin degradation in HEK293T cells stably expressing S33E/S37A β-catenin; assay type: cell-based; conditions: for effect of co-treatment on enhancer-induced degradation of S33E/S37A β-catenin: 5 μM MLN4924 or 10 μM MG132, added 30 min before NRX-252114
T1 construct: Full-length β-catenin (Myc/FLAG-tagged; Origene); expressed in transfected cells
T1 sequence (P35222 whole entry S33E/S37A, one chain of several): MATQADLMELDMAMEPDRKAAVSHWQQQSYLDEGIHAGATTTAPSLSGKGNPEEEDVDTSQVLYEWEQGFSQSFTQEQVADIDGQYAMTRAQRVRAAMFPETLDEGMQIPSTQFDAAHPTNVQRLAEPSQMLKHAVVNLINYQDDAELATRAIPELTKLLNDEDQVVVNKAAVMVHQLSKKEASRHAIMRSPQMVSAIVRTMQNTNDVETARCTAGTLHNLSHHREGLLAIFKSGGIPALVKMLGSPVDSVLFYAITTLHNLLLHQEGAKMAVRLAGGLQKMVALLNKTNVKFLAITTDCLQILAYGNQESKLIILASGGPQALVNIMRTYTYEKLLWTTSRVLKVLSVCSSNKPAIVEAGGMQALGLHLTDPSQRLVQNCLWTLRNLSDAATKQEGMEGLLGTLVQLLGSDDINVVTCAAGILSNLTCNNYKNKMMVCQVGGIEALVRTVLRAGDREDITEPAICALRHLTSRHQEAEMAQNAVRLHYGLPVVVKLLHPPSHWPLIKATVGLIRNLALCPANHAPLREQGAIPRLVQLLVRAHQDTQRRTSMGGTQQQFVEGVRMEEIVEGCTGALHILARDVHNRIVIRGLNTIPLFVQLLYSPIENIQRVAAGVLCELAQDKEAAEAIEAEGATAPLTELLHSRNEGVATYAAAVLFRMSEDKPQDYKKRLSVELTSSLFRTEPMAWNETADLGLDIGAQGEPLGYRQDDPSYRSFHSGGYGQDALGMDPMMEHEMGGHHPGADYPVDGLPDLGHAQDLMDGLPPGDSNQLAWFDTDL
T1 sequence (P63208 whole entry partner, one chain of several): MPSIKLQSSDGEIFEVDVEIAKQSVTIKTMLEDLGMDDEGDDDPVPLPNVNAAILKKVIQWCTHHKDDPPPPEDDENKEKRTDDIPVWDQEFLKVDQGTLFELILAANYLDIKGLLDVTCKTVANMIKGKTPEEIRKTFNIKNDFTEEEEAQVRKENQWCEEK
T1 sequence (Q13616 whole entry partner, one chain of several): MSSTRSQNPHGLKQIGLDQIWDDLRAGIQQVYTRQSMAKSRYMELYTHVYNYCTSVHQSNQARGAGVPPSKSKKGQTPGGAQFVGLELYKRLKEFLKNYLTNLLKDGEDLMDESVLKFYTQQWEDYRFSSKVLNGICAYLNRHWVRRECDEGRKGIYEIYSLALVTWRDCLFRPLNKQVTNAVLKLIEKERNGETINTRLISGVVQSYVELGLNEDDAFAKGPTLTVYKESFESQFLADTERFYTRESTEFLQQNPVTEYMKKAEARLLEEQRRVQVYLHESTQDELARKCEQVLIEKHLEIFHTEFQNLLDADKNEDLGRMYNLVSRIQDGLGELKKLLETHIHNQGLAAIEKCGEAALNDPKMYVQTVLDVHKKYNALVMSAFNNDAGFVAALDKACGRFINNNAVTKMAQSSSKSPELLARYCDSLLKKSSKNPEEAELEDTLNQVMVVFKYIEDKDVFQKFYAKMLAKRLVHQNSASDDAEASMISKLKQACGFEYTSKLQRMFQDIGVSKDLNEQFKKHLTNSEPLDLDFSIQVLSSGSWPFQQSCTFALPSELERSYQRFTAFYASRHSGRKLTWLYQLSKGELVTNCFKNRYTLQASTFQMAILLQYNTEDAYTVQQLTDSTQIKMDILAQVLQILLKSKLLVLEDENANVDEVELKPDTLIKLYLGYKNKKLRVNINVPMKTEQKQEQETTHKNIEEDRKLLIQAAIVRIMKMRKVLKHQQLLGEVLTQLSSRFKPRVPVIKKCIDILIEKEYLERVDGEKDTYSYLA
T1 sequence (P62877 whole entry partner, one chain of several): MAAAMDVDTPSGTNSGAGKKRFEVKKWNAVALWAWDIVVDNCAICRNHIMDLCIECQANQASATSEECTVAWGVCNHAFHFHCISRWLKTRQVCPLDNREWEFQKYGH
T1 sequence (Q15843 1-76 partner limits assumed, one chain of several): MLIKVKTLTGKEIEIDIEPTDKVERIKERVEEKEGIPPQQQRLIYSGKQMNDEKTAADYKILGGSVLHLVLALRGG
Protocol: HEK293T cells were plated in a 10 cm dish in regular growth media (DMEM + 10% FBS) and allowed to adhere to the plate overnight. The following day, cells were transfected with S33E/S37 β-catenin using FuGeneHD transfection reagent. Transfected cells were then selected with media containing 700 μg/ml Geneticin. A pooled population of selected cells were used for all described experiments.
HEK293T cells expressing S33E/S37A β-catenin were plated in six-well plates at a density of 9 × 10^5 cells/well. The following day, cells were incubated with compounds diluted in regular growth media to the appropriate concentration. The final concentration of DMSO for all cell treatments was kept at 0.5% or less. Cell treatments with the Nedd8 inhibitor (MLN4924) and the proteasome inhibitor (MG132) were performed at a final concentration of 5 μM and 10 μM respectively. Cycloheximide treatment was performed at a final concentration of 100 μg/ml.

[4] = biological target: T2, pSer33/Ser37 β-catenin:β-TrCP interaction (Homo sapiens, UniProt P35222+Q9Y297); assay: SPR binding enhancement assay
T2 construct: titrating BODIPY-FL-labeled β-catenin peptides (residues 17-48) against 300 pM β-TrCP; 6xHis-SMT3 (N, cleaved yes); made in house; host or cells: E. coli (co-expressed with BirA)
T2 sequence (Q9Y297 1-569 isoform Q9Y297-2, one chain of several): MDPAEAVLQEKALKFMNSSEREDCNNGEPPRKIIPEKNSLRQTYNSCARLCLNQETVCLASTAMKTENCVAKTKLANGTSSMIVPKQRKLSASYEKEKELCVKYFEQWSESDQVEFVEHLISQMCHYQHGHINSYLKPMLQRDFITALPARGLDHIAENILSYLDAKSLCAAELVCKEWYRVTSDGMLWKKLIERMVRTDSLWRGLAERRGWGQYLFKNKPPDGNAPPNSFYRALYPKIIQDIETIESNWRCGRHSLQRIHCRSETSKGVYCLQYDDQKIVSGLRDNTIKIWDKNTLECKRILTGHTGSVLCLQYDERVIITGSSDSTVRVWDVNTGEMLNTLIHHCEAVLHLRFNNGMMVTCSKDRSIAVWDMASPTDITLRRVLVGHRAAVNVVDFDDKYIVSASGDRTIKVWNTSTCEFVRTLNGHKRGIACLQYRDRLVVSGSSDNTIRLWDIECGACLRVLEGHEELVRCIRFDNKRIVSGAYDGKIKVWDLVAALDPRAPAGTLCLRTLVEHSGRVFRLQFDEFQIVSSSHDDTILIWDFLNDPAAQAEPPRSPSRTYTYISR
T2 sequence (P63208 whole entry partner, one chain of several, the tested form may be a part): as the sequence (P63208 whole entry partner, one chain of several) above
Protocol: SPR binding assays were performed on a GE Healthcare Biacore T200 using a Series B Biacore Sensor Chip SA. […] 333 nM β-TrCP/Skp1 and titrated compound were preincubated and flowed at a rate of 30 μl/min in 10 mM HEPES, 150 mM NaCl, 0.05% Surfactant P20, 1 mM TCEP, and 2% DMSO at pH 7.4 and 20 °C. Engagement of the ternary complex was assessed with a contact and dissociation time of 120 s. […] Errors are standard error of the fit.

[5] = biological target: T3, pSer33/Ser37 β-catenin peptide binding to β-TrCP (Homo sapiens, UniProt P35222+Q9Y297); assay: TR-FRET peptide binding and cooperativity assay, pSer33/Ser37 peptide; conditions: 500 μM NRX-1532; 300 pM β-TrCP; read-out: KD pS33/S37
T3 construct: titrating BODIPY-FL-labeled β-catenin peptides (residues 17-48) against 300 pM β-TrCP; 6xHis-SMT3 (N, cleaved yes); made in house; host or cells: E. coli (co-expressed with BirA)
T3 sequence (Q9Y297 1-569 isoform Q9Y297-2, one chain of several): as the sequence (Q9Y297 1-569 isoform Q9Y297-2, one chain of several) above
T3 sequence (P63208 whole entry partner, one chain of several, the tested form may be a part): as the sequence (P63208 whole entry partner, one chain of several) above
Protocol: (§1) Compounds were incubated in a 20 μl reaction volume with 300 pM biotinylated β-TrCP/Skp1 preincubated with 1.2 nM terbium-coupled streptavidin (Cisbio) and BODIPY-FL labeled β-catenin peptides (see figure legends for peptide details) in a white 384-well microplate (Perkin Elmer ProxiPlate), using a PBS buffer containing 0.01% Triton X-100 and 2 mM DTT with 2% final DMSO. […] Following 1-h incubation, plates were read for TR-FRET signal after excitation at 320 nm and read at 520 and 620 nm using an EnVision plate reader (Perkin Elmer). TR-FRET signal was calculated using a 520/620 nm ratio. Binding and enhancement data were fit to a standard Hill equation (Y = Bmin + (Bmax − Bmin)(X^h)/(X^h + EC50^h)) in Prism (GraphPad). Errors are standard error of the fit.

[6] = pKa determination (fast UV); assay type: physicochemical; conditions: methanol:water co-solvent
Protocol: The pKa values were determined using the fast UV (spectrometric) technique. Samples were titrated in triplicate under methanol:water co-solvent conditions (with MeOH:water mixing ratios varied from 1:1 to 1:4) in the pH range 2.0–12.0 at concentrations of 15 to 30 μM and at a temperature of 25 °C. Aqueous pKa values were determined by Yasuda-Shedlovsky extrapolation from the individual determined results.

[7] = biological target: T4, pSer33/S37A β-catenin peptide binding to β-TrCP (Homo sapiens, UniProt P35222+Q9Y297, S37A); assay: TR-FRET binding enhancement assay, pSer33/S37A peptide
T4 construct: titrating BODIPY-FL-labeled β-catenin peptides (residues 17-48) against 300 pM β-TrCP; 6xHis-SMT3 (N, cleaved yes); made in house; host or cells: E. coli (co-expressed with BirA)
T4 sequence (Q9Y297 1-569 isoform Q9Y297-2, stated change not applied): as the sequence (Q9Y297 1-569 isoform Q9Y297-2, one chain of several) above
T4 sequence (P63208 whole entry partner, the tested form may be a part): as the sequence (P63208 whole entry partner, one chain of several) above
T4 sequence (P35222 17-48 S37A limits assumed): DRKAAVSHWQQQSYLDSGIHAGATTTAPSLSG
Protocol: as §1

[8] = biological target: T5, S33E/S37A β-catenin peptide binding to β-TrCP (Homo sapiens, UniProt P35222+Q9Y297, S33E/S37A); assay: TR-FRET binding enhancement assay, S33E/S37A peptide; conditions: 1% binding saturation
T5 construct: titrating BODIPY-FL-labeled β-catenin peptides (residues 17-48) against 300 pM β-TrCP; 6xHis-SMT3 (N, cleaved yes); made in house; host or cells: E. coli (co-expressed with BirA)
T5 sequence (Q9Y297 1-569 isoform Q9Y297-2, stated change not applied): as the sequence (Q9Y297 1-569 isoform Q9Y297-2, one chain of several) above
T5 sequence (P63208 whole entry partner, the tested form may be a part): as the sequence (P63208 whole entry partner, one chain of several) above
T5 sequence (P35222 17-48 S33E/S37A limits assumed): as the sequence (P35222 17-48 S37A limits assumed) above, with S17E counted along it
Protocol: as §1

[9] = Solubility (qualitative remark); assay type: physicochemical
[10] = biological target: T6, endogenous S37A mutant β-catenin (Homo sapiens, UniProt P35222+Q9Y297, S37A); assay: Degradation of endogenous S37A β-catenin in TOV-112D cells; assay type: cell-based
T6 construct: host or cells: TOV-112D
T6 sequence (P35222 whole entry S37A, one chain of several): as the sequence (P35222 whole entry S33E/S37A, one chain of several) above, with E33S counted along it
T6 sequence (P63208 whole entry partner, one chain of several): as the sequence (P63208 whole entry partner, one chain of several) above
T6 sequence (Q13616 whole entry partner, one chain of several): as the sequence (Q13616 whole entry partner, one chain of several) above
T6 sequence (P62877 whole entry partner, one chain of several): as the sequence (P62877 whole entry partner, one chain of several) above
T6 sequence (Q15843 1-76 partner limits assumed, one chain of several): as the sequence (Q15843 1-76 partner limits assumed, one chain of several) above

[11] = biological target: β-TrCP1 (recombinant β-TrCP/Skp1 complex) (UniProt Q9Y297); assay: TR-FRET peptide titration, no compound; conditions: reference: Ser33/S37A peptide; sites S33
[12] = biological target: β-TrCP1 (recombinant β-TrCP/Skp1 complex) (UniProt Q9Y297); assay: fluorescence polarisation titration; conditions: sites S33
[13] = biological target: Myc/FLAG-tagged S33E/S37A phosphomimetic full-length β-catenin (UniProt P35222)
β-TrCP = biological target: T7, β-TrCP (Homo sapiens, UniProt Q9Y297); assay: TR-FRET
T7 chain: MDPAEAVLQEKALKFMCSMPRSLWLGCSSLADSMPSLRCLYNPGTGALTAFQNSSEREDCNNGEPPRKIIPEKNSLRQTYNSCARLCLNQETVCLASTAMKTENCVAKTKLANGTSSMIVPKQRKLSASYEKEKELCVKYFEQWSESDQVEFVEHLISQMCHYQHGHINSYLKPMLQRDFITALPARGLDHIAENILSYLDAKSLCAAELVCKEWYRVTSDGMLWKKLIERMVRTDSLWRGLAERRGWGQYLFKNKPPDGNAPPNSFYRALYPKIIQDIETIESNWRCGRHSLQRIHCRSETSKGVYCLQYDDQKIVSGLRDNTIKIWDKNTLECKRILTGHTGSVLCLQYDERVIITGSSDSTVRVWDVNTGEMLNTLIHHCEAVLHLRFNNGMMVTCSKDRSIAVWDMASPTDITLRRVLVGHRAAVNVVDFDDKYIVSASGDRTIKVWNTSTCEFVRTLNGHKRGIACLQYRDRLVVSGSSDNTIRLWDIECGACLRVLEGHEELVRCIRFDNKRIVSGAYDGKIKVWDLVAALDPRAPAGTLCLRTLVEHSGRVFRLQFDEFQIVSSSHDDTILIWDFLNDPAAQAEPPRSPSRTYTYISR

[14] = biological target: T8, biotinylated β-TrCP/Skp1 complex (6xHis-SMT3-β-TrCP1-avi tag/Skp1, for TR-FRET) (UniProt Q9Y297-2 1-569; P63208 1-163, biotin on the avi tag (co-expressed with BirA)); assay: AlphaScreen or HTRF; TR-FRET: BODIPY-FL-labeled β-catenin peptides titrated against 300 pM biotinylated β-TrCP/Skp1 on 1.2 nM terbium-coupled streptavidin; PBS, 0.01% Triton X-100, 2 mM DTT, 2% DMSO; 1 h; one-site binding model; no compound; conditions: both partners purified
T8 construct: β-TrCP1; Skp1; Held on terbium-coupled streptavidin in the TR-FRET assay; also called β-TrCP complex; source: E. coli, co-expressed from pCDF-Duet1 with BirA and d-biotin, purified (Ni-NTA, ULP1 cleavage, HiTrap SP, SEC); not shown: His6, N-terminal, cleaved; SMT3, N-terminal, cleaved; avi tag, C-terminal, kept
T8 sequence (P63208 whole entry, one chain of several): as the sequence (P63208 whole entry partner, one chain of several) above

Molecule: BODIPY-FL-labeled S33E/S37A phosphomimetic β-catenin peptide (residues 17-48) (from UniProt P35222 17-48)
- Kd [1]: > 5000 nM
- fold decrease in binding affinity relative to the pSer33/S37A peptide [1]: > 10 fold

Molecule: β-catenin (from UniProt P35222) pSer33/S37A peptide
- binding against the reference [2]: weaker

Molecule: CC(C)C[C@@H](C=O)NC(=O)[C@H](CC(C)C)NC(=O)[C@H](CC(C)C)NC(=O)OCc1ccccc1 [MG132, reference compound] (Cbz-Leu-Leu-Leu-aldehyde)
- effect of co-treatment on enhancer-induced degradation of S33E/S37A β-catenin [3]: completely blocked

Molecule: β-catenin 17-48 (from UniProt P35222) pSer33/S37A peptide
- binding against the reference [11]: stronger

Molecule: β-catenin 17-48 (from UniProt P35222) pSer33/Ser37 peptide
- binding against the reference ([12]; reference: non-phosphorylated peptide (Ser33/Ser37)): stronger

Molecule: β-catenin 17-48 (from UniProt P35222) Ser33/pSer37 peptide
- KD ([12]; reference: pSer33/pSer37 peptide): weaker; reference 2 nM

Molecule: endogenous β-TrCP of HEK293T cells (from UniProt Q9Y297 1-605) (natural protein)
- degradation of stably expressed Myc/FLAG S33E/S37A β-catenin in HEK293T cells, NRX-252114 for 6 h, western blot [13]: 50 µM
- degradation of stably expressed Myc/FLAG S33E/S37A β-catenin in HEK293T cells, NRX-252262 for 6 h, western blot [13]: 35 µM

B1: β-catenin peptide (protein)
chain: ATQADLMELDMAMEPDRKAAVSHWQQQSYLDSGIHSGATTTAPSLSGKGNPEEEDVDTSQVLYEWEQGFSQSFTQEQVADIDGQYAMTRAQRVRAAMFPETLDEGMQIPSTQFDAAHPTNVQRLAEPSQMLKHAVVNLINYQDDAELATRAIPELTKLLNDEDQVVVNKAAVMVHQLSKKEASRHAIMRSPQMVSAIVRTMQNTNDVETARCTAGTLHNLSHHREGLLAIFKSGGIPALVKMLGSPVDSVLFYAITTLHNLLLHQEGAKMAVRLAGGLQKMVALLNKTNVKFLAITTDCLQILAYGNQESKLIILASGGPQALVNIMRTYTYEKLLWTTSRVLKVLSVCSSNKPAIVEAGGMQALGLHLTDPSQRLVQNCLWTLRNLSDAATKQEGMEGLLGTLVQLLGSDDINVVTCAAGILSNLTCNNYKNKMMVCQVGGIEALVRTVLRAGDREDITEPAICALRHLTSRHQEAEMAQNAVRLHYGLPVVVKLLHPPSHWPLIKATVGLIRNLALCPANHAPLREQGAIPRLVQLLVRAHQDTQRRTSMGGTQQQFVEGVRMEEIVEGCTGALHILARDVHNRIVIRGLNTIPLFVQLLYSPIENIQRVAAGVLCELAQDKEAAEAIEAEGATAPLTELLHSRNEGVATYAAAVLFRMSEDKPQDYKKRLSVELTSSLFRTEPMAWNETADLGLDIGAQGEPLGYRQDDPSYRSFHSGGYGQDALGMDPMMEHEMGGHHPGADYPVDGLPDLGHAQDLMDGLPPGDSNQLAWFDTDL
modifications: 20 µM NRX-252114
- Kd (β-TrCP): 180 nM

B2: BODIPY-FL-labeled pSer33/S37C β-catenin peptide (residues 17-48) (peptide)
peptide: Ac-CDRKAAVSHWQQQSYLD[pS]GIHCGATTTAPSLSG
modifications: cysteine pairing not given here; also: BODIPY-FL label, site not given here
notes: added N-terminal cysteine of the peptide list, not part of β-catenin 17-48; as the printed 17-48 peptide with this change; also called pSer33/Cys37; pS33/S37C
- Kd [14]: 154 nM

B3: BODIPY-FL-labeled pSer33/S37F β-catenin peptide (residues 17-48) (peptide)
peptide: Ac-CDRKAAVSHWQQQSYLD[pS]GIHFGATTTAPSLSG
modifications: also: BODIPY-FL label, site not given here
notes: added N-terminal cysteine of the peptide list, not part of β-catenin 17-48; as the printed 17-48 peptide with this change; also called pSer33/Phe37; pS33/S37F
- Kd [14]: 23 nM

Results, then the molecule that gave them:

- effect of co-treatment on enhancer-induced degradation of S33E/S37A β-catenin [3]: completely blocked
Molecule: NS(=O)(=O)OC[C@@H]1C[C@@H](n2ccc3c(N[C@H]4CCc5ccccc54)ncnc32)C[C@@H]1O [MLN4924, reference compound]

- EC50 [4]: 129000 ± 33000 nM
- Kd [5]: 68 nM
- pKa [6]: 5.6
Molecule: O=C(Nc1cccc(-c2ccn[nH]2)c1)c1ccc(C(F)(F)F)[nH]c1=O [NRX-1532]

- EC50 [7]: 163 ± 6 nM
- EC50 [8]: 6700 ± 700 nM
Molecule: CN(C)C(=O)c1cccc(NC(=O)c2c(Sc3c(Cl)cccc3Cl)cc(C(F)(F)F)[nH]c2=O)c1 [NRX-103095]

- solubility relative to NRX-1532 [9]: more soluble
Molecule: O=C(Nc1cccc(-c2nnn[nH]2)c1)c1ccc(C(F)(F)F)[nH]c1=O [NRX-1933]

- concentration at which degradation of S33E/S37A mutant β-catenin starts ([3]; HEK293T stable line, 6 h, western): ~ 35 μM
- degradation of endogenous S37A mutant β-catenin [10]: did not induce degradation
Molecule: COc1cc2c(cc1OC)CN(C(=O)c1c(Sc3c(Cl)cccc3Cl)cc(C(F)(F)F)[nH]c1=O)C2 [NRX-252262]

Reference: article PMC6441019, “Prospective discovery of small molecule enhancers of an E3 ligase-substrate interaction” (Nature Communications, 2019)
